Test [1] addresses T1, human CD3 expressed on cells (Jurkat cells; human primary T cells) (human, UniProt P07766 23-207; P04234 22-171; P09693 23-182).
T1 construct: whole, on cells
The test can be described thus: flow cytometry, Jurkat cells. How it is done: Purified antibodies were confirmed to bind CD3 expressed on cells using the CytoFLEX S or LX flow cytometers (Beckman Coulter). Antibodies were diluted to 25 nM in FACS buffer (PBS+2% FBS) and were incubated with CD3-expressing cells for 30 minutes at 4° C. […] The median fluorescence intensity of the binding signal for each antibody was normalized to the isotype control to obtain a fold over isotype value. An antibody with a fold over isotype (FOI) of ≥10 was considered to be positive for binding.
For orientation: Flow cytometry measures light scatter and fluorescence of single cells or particles in a stream.

The target in test [2] is T2, cynomolgus monkey CD3 expressed on cyno primary T cells (cynomolgus monkey, UniProt Q95LI5 22-198; Q95LI8 22-171; Q95LI7 23-181).
T2 construct: whole, on cells; CD3 complex on purified cynomolgus monkey CD3 pan T cells; also called cyno CD3
The test can be described thus: flow cytometry, cyno primary T cells. The essentials:
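Binding readout: MFI divided by isotype-control MFI (fold over isotype), positive at ≥10. Cells were stained with 25 nM antibody, 30 min, 4° C, in PBS/2% FBS before flow cytometry.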

T1 sequence (P07766 23-207, chain 1 of 3): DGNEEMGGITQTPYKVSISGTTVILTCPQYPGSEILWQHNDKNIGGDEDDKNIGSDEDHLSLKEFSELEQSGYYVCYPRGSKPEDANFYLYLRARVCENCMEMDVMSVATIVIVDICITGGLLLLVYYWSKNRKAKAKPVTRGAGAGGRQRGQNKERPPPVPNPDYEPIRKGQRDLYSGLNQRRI
T1 sequence (P04234 22-171, chain 2 of 3): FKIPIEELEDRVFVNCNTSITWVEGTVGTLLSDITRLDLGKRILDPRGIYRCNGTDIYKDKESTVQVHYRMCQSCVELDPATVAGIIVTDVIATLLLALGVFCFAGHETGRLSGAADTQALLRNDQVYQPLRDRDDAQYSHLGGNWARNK
T1 sequence (P09693 23-182, chain 3 of 3): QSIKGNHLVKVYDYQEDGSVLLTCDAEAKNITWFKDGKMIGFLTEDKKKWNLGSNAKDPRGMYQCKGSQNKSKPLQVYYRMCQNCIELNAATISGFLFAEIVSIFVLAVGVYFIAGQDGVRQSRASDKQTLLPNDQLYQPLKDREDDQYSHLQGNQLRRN
T2 sequence (Q95LI5 22-198, chain 1 of 3): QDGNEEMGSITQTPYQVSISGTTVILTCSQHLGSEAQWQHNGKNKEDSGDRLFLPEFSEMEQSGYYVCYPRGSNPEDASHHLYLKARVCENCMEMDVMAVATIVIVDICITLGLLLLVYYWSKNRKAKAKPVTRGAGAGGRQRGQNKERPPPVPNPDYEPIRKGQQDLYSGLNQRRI
T2 sequence (Q95LI8 22-171, chain 2 of 3): as the sequence (P04234 22-171, chain 2 of 3) above, with I5V, N15K, I20V, S32T, D33N, I34N, T64A, S74N, V83L, H141R counted along it
T2 sequence (Q95LI7 23-181, chain 3 of 3): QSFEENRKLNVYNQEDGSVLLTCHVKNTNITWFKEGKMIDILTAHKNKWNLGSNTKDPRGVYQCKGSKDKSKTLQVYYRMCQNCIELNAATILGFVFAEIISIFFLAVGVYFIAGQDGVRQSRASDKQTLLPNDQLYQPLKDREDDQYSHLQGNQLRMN

B1: mAb 185 (antibody, V domains shown)
VH: QVQLVQSGSEVKKPGASVRVSCKASGYIFTGYHIHWVRQAPGQGLEWMGWINPKSGRTSYAQNFQARVTMTRDTSINTIHMELSRLRSDDTAIYYCMRVGEQLLFDFWGQGTLVTVSS
VL: not shown
notes: VH/VL only
For the molecule B1, the binding result in test [1] and in test [2] was “no binding (tested: FOI <10 (FOI >=10 = positive); 25 nM)” in each case.

B2: mAb 184 (antibody, V domains shown)
VH: QVQLVESGGGVVQPGRSLRLSCAASGFTFSDYGMHWVRQAPGKGLEWVSVIWSDGLNKYYKDSVKGRFTISRDNSKNTLYLQMNSLRAADTAVYYCARLYSGSHYHYFMDVWGKGTSVTVSS
VL: DILLTQSPSFLSASVGDRVTITCRASQDISSSLAWYQQKPKKAPDLLIYTASTLQSGVPSRFSGRGSGTEFTLTISNLQPEDFATYYCQQLKNYPITFGQGTRLEIK
notes: VH/VL only
For the molecule B2, the binding result in test [1] and in test [2] was “no binding (tested: FOI <10 (FOI >=10 = positive); 25 nM)” each time.

B3: mAb 275 (antibody, V domains shown)
VH: QVQLVQSGSELKKPGASVKVSCKASGYTFTKYAMNWVRQAPGQGLEWMGWINTNTGNPTYAQGFTGRFVFSLDASVTTAYLQISSLKAEDTAVYYCAREGHYDFWGGFYYFDYWGQGTLVTVSS
VL: EIMLTQSPATLSLSPGERGTLSCRASQSVSSYLAWYQQKPGQAPRLVIYDVSNRATGIPARFSGSGSGTDFILTIGSLEPEDFAVYYCQQRSNWPLTFGGGTKVEIK
notes: VH/VL only
On to B3, for which the binding result in test [1] and in test [2] was “no binding (tested: FOI <10 (FOI >=10 = positive); 25 nM)” throughout.

B4: mAb 282 (antibody, V domains shown)
VH: QVQLVQSETEVKKPGASVRVSCKASGYTFTGYYVHWVRQAPGQGLEWMGWINPKSGRTSYSQKFQDRVTMTRDTSISTVYMELSRLRSDDTAVYYCARILELIFDYWGQGTLVTVSS
VL: EIVLTQSPDFQSVTPKEKVTITCRASQSIGSSLHWYQQKPDQSPKLLIKYASQSFSGVPSRFSGSGSGTDFTLTINSLEAEDAATYYCHQSSSLPTFGPGTKVDIK
notes: VH/VL only
Consider B4, for which the binding result in test [1] and in test [2] was “no binding (tested: FOI <10 (FOI >=10 = positive); 25 nM)” in each case.

B5: mAb 274 (antibody, V domains shown)
VH: QVQLVQSGAEVKKPGASVRVSCKASGYTFTGYYMHWVRQAPGQGLEWMGWIYPNSGRTNYAQKFQGRVTMTRDTSISTAYMELTRLISDDTAVYYCARLWDLYFDYWGQGTLVTVSS
VL: DIQLTQSPSFLSASVGDRVTITCRASQGISSYLAWYQQKPGKAPKLLIYAASTLQSGVPSRFSGSGSGTEFTLTISSLQPEDFATYYCQQLNSYPWTFGQGTKVEIK
notes: VH/VL only
With B5, the binding result in test [1] and in test [2] was “no binding (tested: FOI <10 (FOI >=10 = positive); 25 nM)” throughout.

B6: mAb 277 (antibody, V domains shown)
VH: QVQLVQSGAAMKKPGASVKVSCKASGSTFTGYYLHWVRQAPGQGLEWMGWIYLNSGRTKYAQKFQGRVTMTRDTSINTAHMELSRLTFDDTAVYYCVRVLELIFDYWGQGTLVTVSS
VL: DIQLTQSPSFLSASVGDRVTITCRASQGISSYLAWYQQKPGKAPKLLIYAASTLQSGVPSRFSGSGSGTEFTLTISSLQPEDFATYYCQQLNSYPWTFGQGTKVEIK
notes: VH/VL only
B6: the binding result in test [1] and in test [2] was “no binding (tested: FOI <10 (FOI >=10 = positive); 25 nM)” in each case.

B7: mAb 280 (antibody, V domains shown)
VH: QVQLVQSGAEVKKPGASVRVSCKASGYTFTGYYMHWVRQAPGQGLEWMGWIYPNSGRTNYAQKFQGRVTMTRDTSISTAYMELTRLISDDTAVYYCARLWDLYFDYWGQGTLVTVSS
VL: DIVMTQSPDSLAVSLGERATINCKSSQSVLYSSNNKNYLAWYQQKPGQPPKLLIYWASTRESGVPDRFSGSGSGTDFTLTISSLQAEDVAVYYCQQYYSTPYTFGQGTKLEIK
notes: VH/VL only
On to B7, for which the binding result in test [1] and in test [2] was “no binding (tested: FOI <10 (FOI >=10 = positive); 25 nM)” each time.

B8: mAb 281 (antibody, V domains shown)
VH: QVQLVQSGAEVKKPGASVRVSCKASGYTFTGYYMHWVRQAPGQGLEWMGWIYPNSGRTNYAQKFQGRVTMTRDTSISTAYMELTRLISDDTAVYYCARLWDLYFDYWGQGTLVTVSS
VL: DIVMTQSPLSLPVTPGEPASISCRSSQSLLHYNGNNYLDWYLQKPGQSPHLLIYLGSNRASGVPDRFSGSGSGTDFTLKIIRVEAEDVGIYYCMQGLQSPYTFGQGTKLEIK
notes: VH/VL only
For B8, the binding result in test [1] and in test [2] was “no binding (tested: FOI <10 (FOI >=10 = positive); 25 nM)” in each case.

B9: mAb 187 (antibody, V domains shown)
VH: EVQLLESGGGLVQPGGSLRLSCAASGFTFSSYAMNWVRQAPGKGLEWVSAISSSGGRTYYADSVKGRFTISRDNSKNTLYLQMNSLRAEDTAVYYCAKDSTSHPYMDVWGKGTTVTVSS
VL: AIQMTQSPSSLSASVGDRVTITCRASQGIRNDLGWYQQQPGKAPKLLIYDASSLQSGVPSRFSGSGSGTVFTLTISSLQPEDFATYFCLQDYNYPFTFGPGTKVDIK
notes: VH/VL only
B9: the binding result in test [1] and in test [2] was “no binding (tested: FOI <10 (FOI >=10 = positive); 25 nM)” throughout.

B10: mAb 278 (antibody, V domains shown)
VH: QVQLVQSGAAMKKPGASVKVSCKASGSTFTGYYLHWVRQAPGQGLEWMGWIYLNSGRTKYAQKFQGRVTMTRDTSISTAHMELSRLTFDDTAVYYCARVLELIFDYWGQGTLVTVSS
VL: not shown
In the case of B10, the binding result in test [1] and in test [2] was “no binding (tested: FOI <10 (FOI >=10 = positive); 25 nM)” each time.

B11: mAb 253 (antibody, V domains shown)
VH: QVTLKESGPVLVKPTETLTLTCTVSGFSLSNARMGVSWIRQPPGKALEWLTLIFSIDEKSYSTSLKSRLTISQDTSKSQVVLTVTNMDPVDTVTYFCERIETGPYYYYYYMDVWGKGTTVTVSS
VL: not shown
notes: VH/VL only
As for B11, the binding result in test [1] and in test [2] was “no binding (tested: FOI <10 (FOI >=10 = positive); 25 nM)” each time.

B12: mAb 254 (antibody, V domains shown)
VH: QVTLKESGPVLVKPTETLTLTCTVSGFSLSNSRMGVSWLRQPPGKALEWLIFIFSIDEKSYSTSLKSRLTISQDTSKSQVVLTMTNMDPVDTVTYFCERIETGPYYYYYYMDVWGKGTTVTVSS
VL: not shown
notes: VH/VL only
With B12, the binding result in test [1] and in test [2] was “no binding (tested: FOI <10 (FOI >=10 = positive); 25 nM)” each time.

B13: mAb 268 (antibody, V domains shown)
VH: QVQLVQSGSEVKKPGASVKVSCKASGYTFTGYYIHWVRQAPGQGLEWMGWINPNSGRTNYAQNFQGRVTMTRDTSITTAHMELTRLTSDDTAVYYCARLELLVFDYWGQGTLVTVSS
VL: DIQMTQSPSSLSASVGDRVTITCRASQTIYNYLNWYQQKPGKAPQVLIYAASNLQSGVPSIFSGSGSGTDFTLTITNLQPEDFATYYCQQTYSIPFTFGGGTKVEIK
notes: VH/VL only
On to B13, for which the binding result in test [1] and in test [2] was “no binding (tested: FOI <10 (FOI >=10 = positive); 25 nM)” in each case.

B14: mAb 279 (antibody, V domains shown)
VH: QVQLVQSGAEVKKPGASVKVSCKASGYTFTGYYMHWVRQAPGQGLEWMGWIYPNSGRTNYAQKFQGRVTMTRDTSISTAYMELTRLISDDTAVYYCARLWDLYFDYWGQGTLVTVSS
VL: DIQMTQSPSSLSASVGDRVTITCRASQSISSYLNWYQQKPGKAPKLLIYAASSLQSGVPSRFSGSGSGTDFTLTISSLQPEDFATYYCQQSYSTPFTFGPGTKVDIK
notes: VH/VL only
As to B14, the binding result in test [1] and in test [2] was “no binding (tested: FOI <10 (FOI >=10 = positive); 25 nM)” throughout.

B15: mAb 269 (antibody, V domains shown)
VH: QVQLVQSGSEVKKPGASVKVSCKASGYTFTGYYIHWVRQAPGQGLEWMGWINPNSGRTNYAQNFQGRVTMTRDTSITTAHMELTRLTSDDTAVYYCARLELLVFDYWGQGTLVTVSS
VL: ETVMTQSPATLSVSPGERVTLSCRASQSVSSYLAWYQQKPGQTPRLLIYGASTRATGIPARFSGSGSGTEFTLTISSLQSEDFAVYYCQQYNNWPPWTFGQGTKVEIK
notes: VH/VL only
B15: the binding result in test [1] and in test [2] was “no binding (tested: FOI <10 (FOI >=10 = positive); 25 nM)” each time.

B16: mAb 289 (antibody, V domains shown)
VH: EVQLLESGGGLVQPGGSRRLSCAASGFTFSSFAMSWVRQAPGKGLEWVSVISSRGDNTNYADSVKGRFTISRDNSKNTLYLQMNSLRAEDTAVYYCAKKYSYYYYYMDVWGKGTTVTVSS
VL: SYELTQPLSVSVALGQTARITCGGNNIGSKNVHWHQQKPGQAPVLVIYRESNRPSGIPERFSGSNSGNTATLTSSRAQAGDEADYYCQVWDSSTAVFGGGTQLTAL
notes: VH/VL only
Take B16: the binding result in test [1] and in test [2] was “no binding (tested: FOI <10 (FOI >=10 = positive); 25 nM)” each time.
